Our source for the protein production values is a protein production outcome set (Wang et al. 2014).

The data set is described as follows: label from the status in PepcDB records.
In the case of “MKISAVVVTFNRKKLLLECLNALRNQTYPLDAIFIIDGPSTDGTPEALLECGYIKELPPKKGNWSWETKNVIYSPINNKPIKVYYVRLYKDVGGSGGFYEGVKRAYEEGYNWIWLMDDDAEPREDALEKLIRYMNLPGVIALAPTVIRPTGEISKPHRGILCFKKIFPMIQIPLDESKYKSNQPVQIDFVSFVGPLIKRDAIKIVGFPKKEFFIHHDDVEYSIRLRTVGKIYLIPDSVIIHKENIKKTSLIKKRFLGKTIYRIPYNKLWKTYYGTRNLTYLGRIYSKSKFKFYFKLLKRWAVSVGAIILFDDHKIKRIQFITSAYLDGLRGKFDNEKPKRILYGGKKELEHHHHHH”, the protein production result is recorded as “not failed”.

As to “MKISQLLSLDTIKLNLAASNKNEVIDQLVDVLWDAGKLTDKNLYKEEILKRESLSSTGIGERIAIPHAKTKAVKNASLALGIYKYGVDYDSLDGEPVNIVFMIAAPAGANDEHLETLSRLSVLLMNPDFKNGLLNAKTPEEVISLLDKFEENEESDETQASNEAENNSNKKYILAVTACPTGIAHTYMAADSLNKTAKEMDVHIKVETNGSTGVKNRLTQEDIDKADGIIVAADKQVEMARFNGKKVVIVPVVQAMKRPQELINEALSGSAPVYSHSGDSSNQSSGKTERRGFYKHLMNGVSNMLPFVVGGGILIAISFMFGIHSAEINDPTFNPIAKLLKDIGGGNAFFLMIPVLAGFIGSSIADRPGFAPAMVGGLIAANSGSGFLGGLIAGFLGGYVVVLLKKIFSKLPQSLEGIKPVLLYPLFGILITGALMYLVIVGPVTALNNNIAIWLQNMGTGNLVLLGIVLGGMMAIDMGGPINKAAFTFGIAMIASGNYYPHAAIMAGGMVPPLATALATTFFKNKFTKDERDAGTTNYIMGLTFITEGAIPFAAADPFRVIPACVIGSAIAGGLSMVFKIGLPAPHGGIFVVPVVEGNPLLYLLSILVGSIVAALIIGFLKKPVNEINK”, the protein production entry is on record as “failed”.

On to “MKITILSGGTGTPKLIQGFKEILPNEDISVIVNTGEDTYIGDIYLSPDIDTVLYTFSNLINDETWYGLKGDTFFCHEQLKNFGFDEVLRIGDKDRALKMHKTSLLKKGVPMSEIVDIERKSLSINSKIYPMSDEKIESKVLIEENNEKILLKFHDFWVSRRGNAKVLDIFYENSNYAKAADGVLKAIEESDFVIIGPSNPITSIGPILSISEIKDALKEKLVFAVSPIVGENPVSGPAGTLMHAKGYPVNAVGVYEYYKDIVDVLVLDNSDINKKKEMNCEVLYANTIMKTIDDKITLARNILDYYKSR”, for which the protein production entry is “failed”.

With “MKITMRVSVPLSPRQAASQPVPSHRCLHVWPFIRPSLLRPELTMPSGCRCLNLVCLLCILGATSQPARADDCSSHCDLAHGCCAPDGSCRCDPGWEGLHCERCVRMPGCQHGTCHQPWQCICHSGWAGKFCDKDEHICTSQSPCQNGGQCVYDGGGEYHCVCLPGFHGRGCERKAGPCEQAGFPCRNGGQCQDNQGFALNFTCRCLAGFMGAHCEVNVDDCLMRPCANGATCIDGINRFSCLCPEGFAGRFCTINLDDCASRPCQRGARCRDRVHDFDCLCPSGYGGKTCELVLPAPEPASVGTPQMPTSAVVVPATGPAPHSAGAGLLRISVKEVVRRQESGLGESSLVALVVFGSLTAALVLATVLLTLRAWRRGICPTGPCCYPAPHYAPARQDQECQVSMLPAGFPLSPDLPPEPGKTTAL”, the protein production entry is “failed”.

On to “MKKAIYLLILCIFGLFSVYFTYAENISDISNTTSKNISSSNISHNNIIYSNINYNEILYIIVKNNTAYVKDVINGTNNPYHIKSAGIILYEKIYGYNYSNLLYRNSSNSLIFYYNFSVDKINYTINITIPQIEDYVGSLGGPIRMRIPPNNVKIIIVAENKLAETNGKYILEYNKTDKKVISLIYLDNVSSICNIYYTKFFNSSEFYGYAVANVTSITENRTSYTIKNPKGTFTFDRKYNVFVSNKTAYLKEPYLYVKLYNSTIDDIIILENNKISENSTKFMSNYLLSFIGIIIGFGIIGLAIYLSKRGRK”, for which the protein production entry was “failed”.

For “MKKAKLIFKDNTPFSLDFDDFYFNFKDGLNESKFVYTHSFEWKNQENFIIAESGFGIGLNFFLTLKRFLETTPSKRPKKLFYISVEAFYIEKEQLREIYQKLEFYEEFKELLEQFLKFYPKAKEGIYRFYFEDCFLDLVFEDIAVLKELDFKADVWYLDGFSPNKNSQMFDENLIFEVARLSKKNTQICTFSSASFLQKNLKKYGFRVEKTKGFRKREMIKAYLENELEFKDKEAYFSRTFSSLKNKKVAIIGAGISSAVLAYELSLRGFEIDIFEKHLELGKGASGNESGILSSLILKPKVNLGEFSELSFIEASRFYRQILDLEFKGVVEFAHNDLMQERFDTQRENVLFKISKNQAFLEEGGVIFPKKLVKNLFEKSKACIYFNHEFQAYKFENGCFSLKFKNDVVKSDYAVLIYAMGADAKDFVFYDEMKLSKVRGQVTHLKPFLDTPFPLSSKAYICPVKDDLQVIGASYDRLNASLESKEEDDKQNIENIADFMDKNTKLEIIGSKVGFRSYSSDRFMIVGNAYDEAFYKEEYKALLWTKNKEQKPAKMSCNLYFNFAHGSRGFSTSVLAARYLCALINNEPLCLEKKYIHAIHPARFLIRKLKKGL”, the protein production entry is “failed”.

In the case of “MKKATMLTYLEEQLEKHLGDYEVGLDWDRKNHTIEVIVRLYAENNEQVAIDDVDGTLSEEEFIEFEDGLLFYNPQKSVVDDEEYLVTIPYEGKKGLRKAVLDGFIHYLKVVLDEGQSDLLDFLSDETAEVFELHWEPADFEAMIKKVAETEKEQWIAYPSY”, the protein production entry is recorded as “not failed”.

Take “MKKAVFSTLVIGLLSFQAHADYVAQPQSIAAQAARYSVMSIPELTQAAKSGQAGAQFYLGAHYQHGKNIPKDDKQAFTWFKAAADQGLSPAQLNVGRMYADGVGVAKNEAMARKYFEKAASNGDNRASYNLAMMEEQKKNYQGAYQWYELSTRDGMLDNKVINMSQSKKTALAANLTQDQIRQAVDRADKWIQAQ”: the protein production result is reported as “failed”.

With “MKKDFASVTPAGKKTSVRWFIVFMLFLVTSINYADRATLSITGDSVQHDLGLDSVAMGYVFSAFGWAYVIGQLPGGWLLDRFGSKTIIALSIFFWSFFTLLQGAIGFFSAGTAIILLFALRFLVGLSEAPSFPGNGRVVASWFPSSERGTASAFFNSAQYFAIVIFPPLMGWLTHSFGWHSVFVVMGIAGILLAVIWLKTVYEPKKHPKVNEAELAYIEQGGGLISMDDSKSKQETESKWPYIKQLLTNRMLIGVYIAQYCITTLTYFFLTWFPVYLVQARGMSILEAGFVASLPALCGFAGGVLGGIVSDILLKKGRSLTFARKVPIIAGMLLSCSMIVCNYTDSAWLVVVIMSLAFFGKGFGALGWAVVSDTSPKECAGLSGGLFNTFGNIASITTPIIIGYIVNATGSFNGALVFVGANAIAAILSYLLLVGPIKRVVLKKQEQDPDQSLPV”, the protein production entry was “failed”.

“MKKEKLFSLLRYIDNGSLECITSLFLITLSLTMPAIGLGNFGIQVIALSMIPLINVRFPVAALPLALVATVWLNAWADHLLLTGFIVYLAVEYATSRGRFALALILGVEWILIAYGVALERPLEAKDSPSLITEILLILVAAGTGAGRWKILSERKQRAITQQEIIKKIRTDIAHYLHDSMARSLAIMIVQSKLTELEPDPKKIQEKLNSIAKIGQEAVADLHQLVRHLVVEESAEKATAFGAWAAVSIHDTVNSAIQLLVDAGHVVSFDSRKKNYKLDHIAETAFALAFNEAVCNAIKHSPPKANVTIRITEKAQSLQILVMNPIGDWHANGESAIPGVGIGVESLTRRIRNIKGQVCVTSLQGYWKVVISLPLKCEDS”: the protein production result is “failed”.

As to “MKKFKLSSFLPLSYILLLVLVSPLYDVLNKSTVHAVDVTTVVDDWIPFVKAFIIPYLLWFPYLYGALIYYCFADRKQYYVTLSSVIFGKLACFSIYYFWQTTVPRPTVVGTDVFSELVRYIYSIDQPVNCFPSIHVLTTFVIMLAAFKRREQHAFEYYILTFFGTLIILSTLFTKQHAFLDAVSGMTLASILYFGVQLLLAKEPIKVPVKQNHKM”, the protein production result is listed as “failed”.

On to “MKKFVCTVCGYIHEGDAAPAQCPVCKVGADKFEEMKGEMVWADEHRIGVAQGVDAEIIEGLRANFTGECTEVGMYLAMSRQADREGYPEVAEAYKRIAFEEAEHAAKFAELLGEVVVADTKENLRVRVDAEYGATDGKLKLAKRAKELGLDAIHDTVHEMCKDEARHGKAFLGLLNRHFGKLEHHHHHH”, for which the protein production entry is recorded as “not failed”.

“MKKGIQPLKWKDVPALAVLGFFSVTLHHLLINTGQQYVTAVASSILSQSIPLFTFIISALLFKEQISFKQWLCILLGLCGAVLVVSGDHGFGMPSPYSLLIVLAAIAWGLYFNLYKKFALNYDALSMMCYIIWFGTLPLLFYSAHLPSEILHATWQANMSVVLLGIFPSAMAYVLWGYVLKNMPLTIASNFLYCSPIVAMSLAVLFLNEKPSIIVLLGGVIIVGSLVWMNWGRKK”: the protein production result was “failed”.

As to “MKKILILFFLLFTVNAFTQNYADYMSSGLDAYARSDWSSALFSFQKAMEVSKNSLDEPLYWLIMANASARNYTVALNDIETFLKRFPNSSKAAEVIYQQGRICCLSAKHDQSINILYGFLRKYPNHRQTASAYYWIGENLYMVGRLKDARTIFSRVIIDYPSSAKVEPSRYKIALIDQASTQDELLKLLKISHEELLKLSEESEKNKKIYEQTIAAYQRQSSDAGGDMRIAELSEQLKMERKHNEELHDQLVMLELKNQELLATLAKMDAKYTSEMAADGETPAADYSDPKAKRAAIEALIKKAKILQSMYNQLLEGNGQ”, the protein production result is given as “failed”.

In the case of “MKKILVLGGAHIDRRGMIETETAPGASNPGSWMEEAGGGGFNAARNLSRLGFEVRIIAPRGGDVTGEVVAEAARQAGVEDTPFTFLDRRTPSYTAILERDGNLVIALADMDLYKLFTPRRLKVRAVREAIIASDFLLCDANLPEDTLTALGLIARACEKPLAAIAISPAKAVKLKAALGDIDILFMNEAEARALTGETAENVRDWPNILRKAGLSGGVVTRGASEVVAFNGTEKAILHPPLIREVKDVTGAGDAMASGYLAAIAEGKTIREALRQGAAAAAITVQSSFATSQDLSKDSVEAMLGLVPQAEMLA”, the protein production result is listed as “not failed”.

As to “MKKITKMVISSVLATVLMTACSQSSQNGQSDVKHIGILQYVEHPSLTATRKGFIKELAKEGYKDGKNIKIEYKNAQGDQSNIQSISEKLIKDNKLVLGIATPAAQSLTTVSTETPILFTAVTDPVSAELVKSMKKPEGLATGTSDMSPIKKQVSLLRKVMPKVKRVGIMYTTSERNSEVQVKQAKKIFQEAGIKTSVKGISSTNDVQDTAKSLMSKTEVIFVPTDNIIASSVTLLGNLSKELKVPVVGGSADMVPSGLLFSYGADYEALGRQTARQAVKILKGKDVAKVPSEYPQNLKVVVNEDMAKELGIDVSSIKNNK”, the protein production entry was “failed”.

For the sequence “MKKIYIILLILFVILISLIGASILLVMSLSGENVDLFGGEKIAKVYLCNEIYFDYNQGDGIFPQQKKDARYYINLLDDLEKDDSVKGVLLVVNSPGGEVIASEKLARKVEELAKKKPVVVYVEGLDASGAYMVSAPADYIVAEKHSIVGSIGVRMDLMHYYGLMKKLGINVTTIKAGKYKDIGSPFRPMTKEEKEYLQKMINETYMDFVKWVAEHRHLSINYTLKIADGKIYSGEDAKKVGLVDEVGTEEDALKKLEQLANVSNPEIVEYGLEENKGLFGLTYYLGYGIGKGIGEVLYGMEKINGRVELLSLEHHHHHH”, the protein production result is reported as “failed”.

Turning to “MKKKKVIASIVAVCFSLALLSTWVMIFGCMKRGEQELHANTSVEIPDMSSIPGCVQNGGQLMYRGNIYKYDPANINILFMGIDARGEDESIGQADMLALVVINTEKDTVKCICINRDSIGPVAIYDISGKAATTKNVQIALAYSYGKSQSEGRGLEMNTVSKLLHGIPIHGSVSVDIDGIGGINELAGGITLTALEDVPKAGIVKGEEVTLNDEQAMYYVTERDSASTDIGTNENRMSRQKQYISAWCDAVQQQIKKNPFKIFKMYDSVQGYVDTDISRNSMLYLAKVLKRVQFGEGDIYTVSGDYERENYYDKYLIDEDKLTEMMIETFYRKTE”, the protein production result is “failed”.
